Reference: patent EP3088890B1 (Chugai Seiyaku Kabushiki Kaisha, dated 2020)

Tests used:
[1] = biological target: GPC3 core (sGPC3-His) protein (human) (UniProt P51654); assay: competition ELISA on plate-bound sGPC3; unlabeled GT607 (100-fold) against competitor biotin-labeled GT114; signal of the labeled antibody
[2] = biological target: GPC3 core (sGPC3-His) protein (human) (UniProt P51654); assay: competition ELISA on plate-bound sGPC3; unlabeled GT114 (100-fold) against competitor biotin-labeled GT165
[3] = biological target: GPC3 core (sGPC3-His) protein (human) (UniProt P51654); assay: competition ELISA on plate-bound sGPC3; unlabeled GT114 (100-fold) against competitor biotin-labeled GT607; signal of the labeled antibody
[4] = biological target: GPC3 core (sGPC3-His) protein (human) (UniProt P51654); assay: competition ELISA on plate-bound sGPC3; unlabeled GT165 (100-fold) against competitor biotin-labeled GT114
[5] = biological target: GPC3 core (sGPC3-His) protein (human) (UniProt P51654); assay: competition ELISA on plate-bound sGPC3; unlabeled GT165 (100-fold) against competitor biotin-labeled GT165; signal of the labeled antibody

Chain of GPC3 core (sGPC3-His) protein (human) (P51654 25-563 S495A/S509A): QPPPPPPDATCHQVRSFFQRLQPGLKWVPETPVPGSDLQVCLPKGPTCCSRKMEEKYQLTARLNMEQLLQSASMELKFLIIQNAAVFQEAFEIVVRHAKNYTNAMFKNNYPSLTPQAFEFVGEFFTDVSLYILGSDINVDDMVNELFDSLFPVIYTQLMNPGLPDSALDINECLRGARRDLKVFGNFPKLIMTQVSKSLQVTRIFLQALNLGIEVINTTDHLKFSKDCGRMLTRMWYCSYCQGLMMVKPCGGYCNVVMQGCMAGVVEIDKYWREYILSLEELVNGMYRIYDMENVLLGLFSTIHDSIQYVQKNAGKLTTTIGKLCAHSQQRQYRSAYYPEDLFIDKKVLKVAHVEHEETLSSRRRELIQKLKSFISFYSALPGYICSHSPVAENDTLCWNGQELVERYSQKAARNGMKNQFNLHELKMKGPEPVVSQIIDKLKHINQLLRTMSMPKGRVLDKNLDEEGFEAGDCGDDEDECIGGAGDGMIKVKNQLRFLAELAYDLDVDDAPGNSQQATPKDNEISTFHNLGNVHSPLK

B1: GT607 antibody (antibody, IgG1, V domains shown)
VH: EVQLVESGGDVVRPGGSLKLSCAASGFTFSSYGMSWVRQLPDKRLEWVASVGNGGSYRYYPENLKGRFTISRDNTKNTLYLQISGLKSEDTAIYYCARRGAFPYFDVWGAGTTVTVSS
VL: QIVLTQSPAIMSASPGEKVTLACSASSSVTYMHWYQQKSGTSPKRWIYETSKLASGVPPRFSGSGSGTSYSLTISTMEAEDAATYYCQQWSSNPLTFGAGTKLELKR
With B1 the O.D. 450 [1] was 1.13 O.D. 450.

B2: GT114 antibody (antibody, IgG1, V domains shown)
VH: DVQLQESGPGLVKPSQSLSLTCTVTGYSITSDSAWNWIRQFPGNKLEWMAYIMYSGITSYNPSLKSRISITRDTAKNQFFLQLNSVTTEDSATYYCSRGYWYFDVWGAGTTVTVSS
VL: QIVLTQSPAIMSASLGEEITLTCSASSSVSYMHWYQQKSGTSPKLLIYSTSILASGVPSRFSGSGSGTFYSLTISSVEAEDAADYYCLQWITYRTFGGGTKLEIKR
With B2 the Inhibitory effect (%) [2] was < 0% and the O.D. 450 [3] was 0.307 O.D. 450.

B3: GT165 antibody (antibody, IgG1, V domains shown)
VH: QVQLQQSGAELVGPGASVKISCKAFGYTFTNHHINWVKQRPGQGLDWIGYINPYNDYTNYNQKFKGKATLTVDKSSSTAYMELSSLTSEDSAVYYCARSDPAWFAYWGQGTLVTVSA
VL: DIQMTQSPSSLSASLGGKVTITCKASQDINKNIAWYQHKPGKGPRLLIWYTYTLQPGIPSRFSGSGSGRDYSFSISNLEPEDIATYYCLQYDNLPFTFGTGTKLEIKR
B3 was tested, and the Inhibitory effect (%) [4] was 1% and the O.D. 450 [5] was 0.111 O.D. 450.
